pKd: −log10 of the molar value.
Biological target: Cy5-labeled human neutrophil peptide 1 (HNP1) (human)
Experiment: fluorescence polarisation

In the case of “Recombinant SARS-CoV-2 Spike glycoprotein (from UniProt P0DTC2) (natural protein)”, the pKd was 6.84.
